Earlier results on one molecule are cited in PMC12071944, “Interaction Between Glucagon-like Peptide 1 and Its Analogs with Amyloid-β Peptide Affects Its Fibrillation and Cytotoxicity” (International Journal of Molecular Sciences, 2025).

The test system of the data set is AD patients. Particulars: human, in vivo. The source says:
Worldwide, approximately 416 million individuals are affected by AD dementia, prodromal AD, or preclinical AD, accounting for 22% of the population aged 50 years and older.

B1: lecanemab (antibody, chains of the INN, looked up, V domains shown)
VH: EVQLVESGGGLVQPGGSLRLSCSASGFTFSSFGMHWVRQAPGKGLEWVAYISSGSSTIYYGDTVKGRFTISRDNAKNSLFLQMSSLRAEDTAVYYCAREGGYYYGRSYYTMDYWGQGTTVTVSS
VL: DVVMTQSPLSLPVTPGAPASISCRSSQSIVHSNGNTYLEWYLQKPGQSPKLLIYKVSNRFSGVPDRFSGSGSGTDFTLRISRVEAEDVGIYYCFQGSHVPPTFGPGTKLEIK
Take B1: the side effects result was “brain edema and microhemorrhages”.
